Assay results as given in publication PMC5852461 (Biochemistry, 2018).

What was measured:
[1] = target: TatBC–His6 complex (GDN-solubilized, purified) (E. coli) (UniProt P69425); assay: ITC; TatBC–His6 (45 μM) in the cell; titrant 150 μM HiPIP or 85 μM TorA signal peptide; 25 °C; 20 mM MOPS-NaOH, 200 mM NaCl, 1 mM EDTA, 0.01% GDN, pH 8; one-site model; molar ratio counted per TatC–His6
[2] = target: TatBC–strepII–His6 complex (E. coli) (UniProt P69425); assay: SPR; Biacore T200; TatBC complex captured (about 300 RU) on polyclonal TatB antibodies coupled to a CM5 chip; precursor as analyte at 1.9–30 μM, injected for 3 min; 25 °C; 20 mM MOPS-NaOH, 200 mM NaCl, 1 mM EDTA, 0.01% GDN, pH 8; 1:1 binding model
[3] = target: T1, TatBC–His6 complex (GDN-solubilized, purified) (E. coli, UniProt P69425 1-171; P69423 1-258); assay: ITC; TatBC–His6 (45 μM) in the cell; titrant 150 μM HiPIP or 85 μM TorA signal peptide; 25 °C; 20 mM MOPS-NaOH, 200 mM NaCl, 1 mM EDTA, 0.01% GDN, pH 8; one-site model; molar ratio counted per TatC–His6; details: both partners purified
T1 sequence (looked up) 1: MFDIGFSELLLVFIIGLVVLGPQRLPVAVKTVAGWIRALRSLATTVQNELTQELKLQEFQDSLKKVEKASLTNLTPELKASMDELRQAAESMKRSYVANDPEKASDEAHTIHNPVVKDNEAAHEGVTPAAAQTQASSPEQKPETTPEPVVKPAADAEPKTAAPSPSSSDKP
T1 sequence (looked up) 2: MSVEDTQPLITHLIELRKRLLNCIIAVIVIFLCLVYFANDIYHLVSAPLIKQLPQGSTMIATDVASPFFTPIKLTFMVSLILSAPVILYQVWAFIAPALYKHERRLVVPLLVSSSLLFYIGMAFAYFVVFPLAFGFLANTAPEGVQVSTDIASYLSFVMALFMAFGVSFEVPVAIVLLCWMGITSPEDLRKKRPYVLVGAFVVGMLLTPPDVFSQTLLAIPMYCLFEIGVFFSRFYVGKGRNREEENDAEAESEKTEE

high-potential iron–sulfur protein (HiPIP) precursor from Acidithiobacillus ferrooxidans, His6-tagged (natural protein)
Kd [1]: 6 µM | stoichiometry N (HiPIP per TatC) [1]: 0.33

E. coli CueO precursor, hexahistidine-tagged (from UniProt P36649 29-516) (natural protein)
Kd [2]: 4.5 µM | koff [2]: 0.0018 s⁻¹ | kon [2]: 400 M⁻¹ s⁻¹

B1: TorA signal peptide (residues 10–36) (peptide)
peptide: SRRRFLAQLGGLTVAGMLGPSLLTPRR
Kd [3]: ~0.5 µM | stoichiometry N [3]: 0.44 peptide per TatC
